Measurements published in publication doi:10.1101/2022.03.02.482546.

What follows are molecules tested against soluble form of full-length LRP1 (low-density lipoprotein receptor-related protein 1) (human) (assay: ELISA).

Molecule	Kd
recombinant human ADAMTS1 (from UniProt Q9UHI8 50-967) (enzyme)	20.2 nM
recombinant human high-mobility group protein B1 (from UniProt P09429 1-215) (natural protein)	6.4 nM
full-length human CEMIP (cell migration-inducing and hyaluronan-binding protein) (natural protein) TVAAGCPDQSPELQPWNPGHDQDHHVHIGQGKTLLLTSSATVYSIHISEGGKLVIKDHDEPIVLRTRHILIDNGGELHAGSALCPFQGNFTIILYGRADEGIQPDPYYGLKYIGVGKGGALELHGQKKLSWTFLNKTLHPGGMAEGGYFFERSWGHRGVIVHVIDPKSGTVIHSDRFDTYRSKKESERLVQYLNAVPDGRILSVAVNDEGSRNLDDMARKAMTKLGSKHFLHLGFRHPWSFLTVKGNPSSSVEDHIEYHGHRGSAAARVFKLFQTEHGEYFNVSLSSEWVQDVEWTEWFDHDKVSQTKGGEKISDLWKAHPGKICNRPIDIQATTMDGVNLSTEVVYKKGQDYRFACYDRGRACRSYRVRFLCGKPVRPKLTVTIDTNVNSTILNLEDNVQSWKPGDTLVIASTDYSMYQAEEFQVLPCRSCAPNQVKVAGKPMYLHIGEEIDGVDMRAEVGLLSRNIIVMGEMEDKCYPYRNHICNFFDFDTFGGHIKFALGFKAAHLEGTELKHMGQQLVGQYPIHFHLAGDVDERGGYDPPTYIRDLSIHHTFSRCVTVHGSNGLLIKDVVGYNSLGHCFFTEDGPEERNTFDHCLGLLVKSGTLLPSDRDSKMCKMITEDSYPGYIPKPRQDCNAVSTFWMANPNNNLINCAAAGSEETGFWFIFHHVPTGPSVGMYSPGYSEHIPLGKFYNNRAHSNYRAGMIIDNGVKTTEASAKDKRPFLSIISARYSPHQDADPLKPREPAIIRHFIAYKNQDHGAWLRGGDVWLDSCRFADNGIGLTLASGGTFPYDDGSKQEIKNSLFVGESGNVGTEMMDNRIWGPGGLDHSGRTLPIGQNFPIRGIQLYDGPINIQNCTFRKFVALEGRHTSALAFRLNNAWQSCPHNNVTGIAFEDVPITSRVFFGEPGPWFNQLDMDGDKTSVFHDVDGSVSEYPGSYLTKNDNWLVRHPDCINVPDWRGAICSGCYAQMYIQAYKTSNLRMKIIKNDFPSHPLYLEGALTRSTHYQQYQPVVTLQKGYTIHWDQTAPAELAIWLINFNKGDWIRVGLCYPRGTTFSILSDVHNRLLKQTSKTGVFVRTLQMDKVEQSYPGRSHYYWDEDSGLLFLKLKAQNEREKFAFCSMKGCERIKIKALIPKNAGVSDCTATAYPKFTERAVVDVPMPKKLFGSQLKTKDHFLEVKMESSKQHFFHLWNDFAYIEVDGKKYPSSEDGIQVVVIDGNQGRVVSHTSFRNSILQGIPWQLFNYVATIPDNSIVLMASKGRYVSRGPWTRVLEKLGADRGLKLKEQMAFVGFKGSFRPIWVTLDTEDHKAKIFQVVPIPVVKKKKL	2.6 nM
recombinant human hepatocyte growth factor activator (enzyme) QPGGNRTESPEPNATATPAIPTILVTSVTSETPATSAPEAEGPQSGGLPPPPRAVPSSSSPQAQALTEDGRPCRFPFRYGGRMLHACTSEGSAHRKWCATTHNYDRDRAWGYCVEATPPPGGPAALDPCASGPCLNGGSCSNTQDPQSYHCSCPRAFTGKDCGTEKCFDETRYEYLEGGDRWARVRQGHVEQCECFGGRTWCEGTRHTACLSSPCLNGGTCHLIVATGTTVCACPPGFAGRLCNIEPDERCFLGNGTGYRGVASTSASGLSCLAWNSDLLYQELHVDSVGAAALLGLGPHAYCRNPDNDERPWCYVVKDSALSWEYCRLEACESLTRVQLSPDLLATLPEPASPGRQACGRRHKKRTFLRPRIIGGSSSLPGSHPWLAAIYIGDSFCAGSLVHTCWVVSAAHCFSHSPPRDSVSVVLGQHFFNRTTDVTQTFGIEKYIPYTLYSVFNPSDHDLVLIRLKKKGDRCATRSQFVQPICLPEPGSTFPAGHKCQIAGWGHLDENVSGYSSSLREALVPLVADHKCSSPEVYGADISPNMLCAGYFDCKSDACQGDSGGPLACEKNGVAYLYGIISWGDGCGRLHKPGVYTRVANYVDWINDRIRPPRRLVAPS	> 500 nM
recombinant human high-mobility group protein B2 (natural protein) MGKGDPNKPRGKMSSYAFFVQTCREEHKKKHPDSSVNFAEFSKKCSERWKTMSAKEKSKFEDMAKSDKARYDREMKNYVPPKGDKKGKKKDPNAPKRPPSAFFLFCSEHRPKIKSEHPGLSIGDTAKKLGEMWSEQSAKDKQPYEQKAAKLKEKYEKDIAAYRAKGKSEAGKKGPGRPTGSKKKNEPEDEEEEEEEEDEDEEEEDEDEE	3.9 nM
recombinant human insulin-like growth factor-binding protein 7 (natural protein) SSSDTCGPCEPASCPPLPPLGCLLGETRDACGCCPMCARGEGEPCGGGGAGRGYCAPGMECVKSRKRRKGKAGAAAGGPGVSGVCVCKSRYPVCGSDGTTYPSGCQLRAASQRAESRGEKAITQVSKGTCEQGPSIVTPPKDIWNVTGAQVYLSCEVIGIPTPVLIWNKVKRGHYGVQRTELLPGDRDNLAIQTRGGPEKHEVTGWVLVSPLSKEDAGEYECHASNSQGQASASAKITVVDALHEIPVKKGEGAEL	11 nM

Other lines, results leading:

Kd	Molecule
11 nM	recombinant human tumour necrosis factor-inducible gene 6 protein (from UniProt P98066 18-277) (natural protein)
> 200 nM	recombinant human leukemia inhibitory factor (from UniProt P15018 23-202) (ligand)
2 nM	recombinant human slit homolog 2 protein (ligand) QCSCSGSTVDCHGLALRSVPRNIPRNTERLDLNGNNITRITKTDFAGLRHLRVLQLMENKISTIERGAFQDLKELERLRLNRNHLQLFPELLFLGTAKLYRLDLSENQIQAIPRKAFRGAVDIKNLQLDYNQISCIEDGAFRALRDLEVLTLNNNNITRLSVASFNHMPKLRTFRLHSNNLYCDCHLAWLSDWLRQRPRVGLYTQCMGPSHLRGHNVAEVQKREFVCSGHQSFMAPSCSVLHCPAACTCSNNIVDCRGKGLTEIPTNLPETITEIRLEQNTIKVIPPGAFSPYKKLRRIDLSNNQISELAPDAFQGLRSLNSLVLYGNKITELPKSLFEGLFSLQLLLLNANKINCLRVDAFQDLHNLNLLSLYDNKLQTIAKGTFSPLRAIQTMHLAQNPFICDCHLKWLADYLHTNPIETSGARCTSPRRLANKRIGQIKSKKFRCSAKEQYFIPGTEDYRSKLSGDCFADLACPEKCRCEGTTVDCSNQKLNKIPEHIPQYTAELRLNNNEFTVLEATGIFKKLPQLRKINFSNNKITDIEEGAFEGASGVNEILLTSNRLENVQHKMFKGLESLKTLMLRSNRITCVGNDSFIGLSSVRLLSLYDNQITTVAPGAFDTLHSLSTLNLLANPFNCNCYLAWLGEWLRKKRIVTGNPRCQKPYFLKEIPIQDVAIQDFTCDDGNDDNSCSPLSRCPTECTCLDTVVRCSNKGLKVLPKGIPRDVTELYLDGNQFTLVPKELSNYKHLTLIDLSNNRISTLSNQSFSNMTQLLTLILSYNRLRCIPPRTFDGLKSLRLLSLHGNDISVVPEGAFNDLSALSHLAIGANPLYCDCNMQWLSDWVKSEYKEPGIARCAGPGEMADKLLLTTPSKKFTCQGPVDVNILAKCNPCLSNPCKNDGTCNSDPVDFYRCTCPYGFKGQDCDVPIHACISNPCKHGGTCHLKEGEEDGFWCICADGFEGENCEVNVDDCEDNDCENNSTCVDGINNYTCLCPPEYTGELCEEKLDFCAQDLNPCQHDSKCILTPKGFKCDCTPGYVGEHCDIDFDDCQDNKCKNGAHCTDAVNGYTCICPEGYSGLFCEFSPPMVLPRTSPCDNFDCQNGAQCIVRINEPICQCLPGYQGEKCEKLVSVNFINKESYLQIPSAKVRPQTNITLQIATDEDSGILLYKGDKDHIAVELYRGRVRASYDTGSHPASAIYSVETINDGNFHIVELLALDQSLSLSVDGGNPKIITNLSKQSTLNFDSPLYVGGMPGKSNVASLRQAPGQNGTSFHGCIRNLYINSELQDFQKVPMQTGILPGCEPCHKKVCAHGTCQPSSQAGFTCECQEGWMGPLCDQRTNDPCLGNKCVHGTCLPINAFSYSCKCLEGHGGVLCDEEEDLFNPCQAIKCKHGKCRLSGLGQPYCECSSGYTGDSCDREISCRGERIRDYYQKQQGYAACQTTKKVSRLECRGGCAGGQCCGPLRSKRRKYSFECTDGSSFVDEVEKVVKCGCTRCVS
41 nM	recombinant human secreted protein acidic and rich in cysteine (natural protein) APQQEALPDETEVVEETVAEVTEVSVGANPVQVEVGEFDDGAEETEEEVVAENPCQNHHCKHGKVCELDENNTPMCVCQDPTSCPAPIGEFEKVCSNDNKTFDSSCHFFATKCTLEGTKKGHKLHLDYIGPCKYIPPCLDSELTEFPLRMRDWLKNVLVTLYERDEDNNLLTEKQKLRVKKIHENEKRLEAGDHPVELLARDFEKNYNMYIFPVHWQFGQLDQHPIDGYLSHTELAPLRAPLIPMEHCTTRFFETCDLDNDKYIALDEWAGCFGIKQKDIDKDLVI
